Source: paper PMC8913847

Target: T1, IRF-3, endogenous in SeV-infected 293T cells (phosphorylated) (human (endogenous in 293T)), Q14653
T1 chain: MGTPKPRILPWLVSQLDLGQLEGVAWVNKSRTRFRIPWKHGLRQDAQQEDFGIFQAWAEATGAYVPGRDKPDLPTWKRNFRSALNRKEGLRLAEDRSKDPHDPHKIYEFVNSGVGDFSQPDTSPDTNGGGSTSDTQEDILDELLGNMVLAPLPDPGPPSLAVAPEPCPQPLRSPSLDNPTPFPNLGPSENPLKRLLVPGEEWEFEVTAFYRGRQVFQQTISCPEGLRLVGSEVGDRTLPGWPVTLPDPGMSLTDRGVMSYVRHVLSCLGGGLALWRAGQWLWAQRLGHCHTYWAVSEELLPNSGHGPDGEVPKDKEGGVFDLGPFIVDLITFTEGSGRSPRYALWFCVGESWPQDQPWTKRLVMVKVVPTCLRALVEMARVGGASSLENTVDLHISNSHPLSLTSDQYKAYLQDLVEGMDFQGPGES
Experiment: native gel or EMSA; native PAGE (7.5% gel, 0.2% sodium deoxycholate in the upper chamber buffer) of total lysates of 293T and 293T DDX3KO cells infected with SeV for the indicated times; immunoblot for IRF-3
Conditions: remark: other sources report otherwise

B1: IRF-3, endogenous in SeV-infected 293T cells (phosphorylated), Q14653 1-427 (natural protein)
chain: T1 chain
modifications: here or on the partner: phosphorylation detected with phospho-specific antibody (S396); mobility retardation suggesting phosphorylation at multiple sites; phosphorylation detected with phospho-specific antibody (S396); mobility retardation suggesting phosphorylation at multiple sites
B1 gave a stoichiometry N of 2.
